Results on 18 molecules are retold here after patent US20230265179A1 (TWIST BIOSCIENCE, published 2023).

The target in assay [1] is T1, IL1RL2 over-expressed on Expi293 cells (UniProt Q9HB29 20-575, limits assumed).
T1 construct: whole, on cells; Target of the flow cytometry assay; MFI ratio is over-expressing cells over parent cells
T1 sequence (looked up): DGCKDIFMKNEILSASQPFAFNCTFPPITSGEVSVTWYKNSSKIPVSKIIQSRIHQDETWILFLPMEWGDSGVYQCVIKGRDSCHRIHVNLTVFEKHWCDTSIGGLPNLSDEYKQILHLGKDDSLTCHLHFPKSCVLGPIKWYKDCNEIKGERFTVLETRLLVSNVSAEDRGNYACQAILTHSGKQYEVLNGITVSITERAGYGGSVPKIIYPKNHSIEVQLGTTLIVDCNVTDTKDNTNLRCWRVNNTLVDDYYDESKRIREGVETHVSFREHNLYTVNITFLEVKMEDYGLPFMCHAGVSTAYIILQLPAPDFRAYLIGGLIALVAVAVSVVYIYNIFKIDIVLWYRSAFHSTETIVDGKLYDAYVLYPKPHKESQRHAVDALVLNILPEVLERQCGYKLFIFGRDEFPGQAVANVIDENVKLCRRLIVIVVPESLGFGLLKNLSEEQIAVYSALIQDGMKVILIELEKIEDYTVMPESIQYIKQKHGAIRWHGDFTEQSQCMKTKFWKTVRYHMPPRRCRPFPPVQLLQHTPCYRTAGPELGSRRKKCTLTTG
The assay can be described thus: flow cytometry, over-expressing Expi293 vs parent cells, 100 nM antibody.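 Note: ratio is mean fluorescence intensity on over-expressing Expi293 cells divided by that measured on parental Expi293 cells.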
Experimental: (§1) All incubations and washes were in buffer containing PBS+1% BSA. MFI Ratio is defined by the mean fluorescence intensity (MFI) of the cytokine over-expressing Expi293 cell over the Expi293 parent cell. […] EC50 was calculated in GraphPad Prism.

In the next assay the target is T2, CD40L (UniProt P29965 1-261, limits assumed).
T2 construct: whole, on cells; also called cytokine over-expressing Expi293 cells (CD40L)
T2 sequence (looked up): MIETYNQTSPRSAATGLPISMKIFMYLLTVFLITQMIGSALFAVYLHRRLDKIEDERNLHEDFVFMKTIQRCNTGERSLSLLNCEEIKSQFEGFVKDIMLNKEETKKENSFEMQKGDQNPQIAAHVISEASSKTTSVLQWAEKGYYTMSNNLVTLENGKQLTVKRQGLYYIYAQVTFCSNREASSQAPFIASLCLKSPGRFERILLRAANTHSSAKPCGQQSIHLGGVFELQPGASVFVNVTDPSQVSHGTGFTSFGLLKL
Kind of assay: flow cytometry, 100 nM IgG, CD40L over-expressing Expi293 cells over parent Expi293 cells.

Experimental for CD40L: as §1

B1: IL1RL2-295 (antibody, V domains shown)
VH: EVQLLESGGGLVQPGGSLRLSCAASGFSFTTYAMSWVRQAPGKGLEWVSGISGGGGSTYYADSVKGRFTISRDNSKNTLYLQMNSLRAEDTAVYYCAKLVLSNRGGVDYWGQGTLVTVSS
VL: DIQMTQSPSSLSASVGDRVTITCRASQSIRSHLNWYQQKPGKAPKLLIYRASTLQTGVPSRFSGSGSGTDFTLTISSLQPEDFATYYCQQSYSILPVTFGGGTKVEIK
notes: IgG2
As for B1, the “100 nM FACS (MFI Ratio)” value in assay [1] turned out to be 3.07.

B2: IL1RL2-181 (antibody, V domains shown)
VH: EVQLLESGGGLVQPGGSLRLSCAASGFTFGQESMYWVRQAPGKGLEWVSGITRSGSTNYRDSVKGRFTISRDNSKNTLYLQMNSLRAEDTAVYYCAKQLGEEFDYWGQGTLVTVSS
VL: DIQMTQSPSSLSASVGDRVTITCTGDKLAEKYVSWYQQKPGKAPKLLIYAKNNRPSGVPSRFSGSGSGTDFTLTISSLQPEDFATYYCQQWSSNPLTFGQGTKVEIK
notes: IgG2
Take B2: the “100 nM FACS (MFI Ratio)” value in assay [1] stood at 1.02.

B3: CD40L-205 (antibody, V domains shown)
VH: EVQLLESGGGLVQPGGSLRLSCAASGFDFSDYEMSWVRQAPGKGLEWVSSITSEGGSTYYADSVKGRFTISRDNSKNTLYLQMNSLRAEDTAVYYCAKPDVLFDYWGQGTLVTVSS
VL: DIQMTQSPSSLSASVGDRVTITCSGDNLGDKYVHWYQQKPGKAPKLLIYGKNIRPSGVPSRFSGSGSGTDFTLTISSLQPEDFANYYCQQTYSIPYTFGQGTKVEIK
As for B3, the “100 nM FACS (MFI Ratio)” value in the assay with CD40L is 6.6 MFI ratio.

B4: CD40L-208 (antibody, V domains shown)
VH: EVQLLESGGGLVQPGGSLRLSCAASGFTFASYEMTWVRQAPGKGLEWVSSITSEGGSTYYADSVKGRFTISRDNSKNTLYLQMNSLRAEDTAVYYCAKPDKDFDYWGQGTLVTVSS
VL: DIQMTQSPSSLSASVGDRVTITCRASQTIGDYLNWYQQKPGKAPKLLIYLGSELQSGVPSRFSGSGSGTDFTLTINSLQPEDFATYYCQTWDTGESGVFGQGTKVEIK
For B4, the “100 nM FACS (MFI Ratio)” value with CD40L is 1.6 MFI ratio.

B5: CD40L-207 (antibody, V domains shown)
VH: EVQLLESGGGLVQPGGSLRLSCAASGFTFEDTEMDWVRQAPGKGLEWVSSITSEGGSTYYADSVKGRFTISRDNSKNTLYLQMNSLRAEDTAVYYCAKPDKDFDYWGQGTLVTVSS
VL: DIQMTQSPSSLSASVGDRVTITCRASQRISSFLNWYQQKPGKAPKLLIYDASNLQSGVPSRFSGSGSGTDFTLTISSLQPEDFATYYCQPSFYFPYAFGQGTKVEIK
Take B5: the “100 nM FACS (MFI Ratio)” value with CD40L came to 11.9 MFI ratio.

B6: IL1RL2-289 (antibody, V domains shown)
VH: EVQLLESGGGLVQPGGSLRLSCAASGFTFTKYAMSWVRQAPGKGLEWVSGISGSGGYTYYADSVKGRFTISRDNSKNTLYLQMNSLRAEDTAVYYCARGAGSPDYWGQGTLVTVSS
VL: DIQMTQSPSSLSASVGDRVTITCRASQNIRSYLNWYQQKPGKAPKLLIYATSNLQRGVPSRFSGSGSGTDFTLTISSLQPEDFATYYCQQSYRAPYIFGGGTKVEIK
notes: IgG2
Take B6: the “100 nM FACS (MFI Ratio)” value in assay [1] turned out to be 5.31.

B7: IL1RL2-185 (antibody, V domains shown)
VH: EVQLLESGGGLVQPGGSLRLSCAASGFTFDKYLMSWVRQAPGKGLEWVSAISGRGDNTYYADSVKGRFTISRDNSKNTLYLQMNSLRAEDTAVYYCARGGDTYFDYFDYWGQGTLVTVSS
VL: DIQMTQSPSSLSASVGDRVTITCRASQSIRRFLNWYQQKPGKAPKLLIYQASSLQSGVPSRFSGSGSGTDFTLTISSLQPEDFATYYCQQSHSSPLTFGQGTKVEIK
notes: IgG2
Take B7: the “100 nM FACS (MFI Ratio)” value in assay [1] stood at 205.

B8: IL1RL2-301 (antibody, V domains shown)
VH: EVQLLESGGGLVQPGGSLRLSCAASGFPLSSYAMSWVRQAPGKGLEWVSLISGSGVSTYYADSVKGRFTISRDNSKNTLYLQMNSLRAEDTAVYYCARGWGAAEEWGQGTLVTVSS
VL: DIQMTQSPSSLSASVGDRVTITCRASQSVSYYLNWYQQKPGKAPKLLIYGAVNLQSGVPSRFSGSGSGTDFTLTISSLQPEDFATYYCQQSHTIPYTFGQGTKVEIK
notes: IgG2
B8: in assay [1], the “100 nM FACS (MFI Ratio)” value is 11.7.

B9: IL1RL2-297 (antibody, V domains shown)
VH: EVQLLESGGGLVQPGGSLRLSCAASGFTFRSHAMSWVRQAPGKGLEWVSALSGSGGRTYYADSVKGRFTISRDNSKNTLYLQMNSLRAEDTAVYYCASSGAGVSDYWGQGTLVTVSS
VL: DIQMTQSPSSLSASVGDRVTITCRASQSIDTNLNWYQQKPGKAPKLLIYAASNLQHGVPSRFSGSGSGTDFTLTISSLQPEDFATYYCQQSSSIPLTFGGGTKVEIK
notes: IgG2
Take B9: the “100 nM FACS (MFI Ratio)” value in assay [1] is 7.44.

B10: IL1RL2-184 (antibody, V domains shown)
VH: EVQLLESGGGLVQPGGSLRLSCAASGFTFSDYDMSWVRQAPGKGLEWVSSISPSGGWTEYADSVKGRFTISRDNSKNTLYLQMNSLRAEDTAVYYCARHDYSNYPYFDYWGQGTLVTVSS
VL: DIQMTQSPSSLSASVGDRVTITCRASQTIGDYLNWYQQKPGKAPKLLIYTASNLQNGVPSRFSGSGSGTDFTLTISSLQPEDFATYYCQQGFSNPWTFGQGTKVEIK
notes: IgG2
Regarding B10, the “100 nM FACS (MFI Ratio)” value in assay [1] was determined as 3.19.

B11: IL1RL2-292 (antibody, V domains shown)
VH: EVQLLESGGGLVQPGGSLRLSCAASGLTFNNYAMSWVRQAPGKGLEWVSGISGSSGNTYYVDSVKGRFTISRDNSKNTLYLQMNSLRAEDTAVYYCARGPNHGMFDAWGQGTLVTVSS
VL: DIQMTQSPSSLSASVGDRVTITCRASQSIGYYLNWYQQKPGKAPKLLIYSATSLQSGVPSRFSGSGSGTDFTLTISSLQPEDFATYYCQHRGTFGGGTKVEIK
notes: IgG2
For the molecule B11, the “100 nM FACS (MFI Ratio)” value in assay [1] came to 11.7.

B12: IL1RL2-283 (antibody, V domains shown)
VH: EVQLLESGGGLVQPGGSLRLSCAASGFAFRSYAMSWVRQAPGKGLEWVSAITGSGTSTYYADSVKGRFTISRDNSKNTLYLQMNSLRAEDTAVYYCARDILWNYRVADYWGQGTLVTVSS
VL: DIQMTQSPSSLSASVGDRVTITCRASLSISRYLNWYQQKPGKAPKLLIYTASSLHSGVPSRFSGSGSGTDFTLTISSLQPEDFATYYCQQSYRTPPWTFGGGTKVEIK
notes: IgG2
For B12, in assay [1], the “100 nM FACS (MFI Ratio)” value was found to be 3.98.

B13: IL1RL2-290 (antibody, V domains shown)
VH: EVQLLESGGGLVQPGGSLRLSCAASGFAFRSYAMSWVRQAPGKGLEWVSAITGSGTSTYYADSVKGRFTISRDNSKNTLYLQMNSLRAEDTAVYYCARDILWNYHVADYWGQGTLVTVSS
VL: DIQMTQSPSSLSASVGDRVTITCRASLSISRYLNWYQQKPGKAPKLLIYTASSLHSGVPSRFSGSGSGTDFTLTISSLQPEDFATYYCQQSYRTPPWTFGGGTKVEIK
notes: IgG2
With B13, in assay [1], the “100 nM FACS (MFI Ratio)” value was determined as 8.4.

B14: IL1RL2-284 (antibody, V domains shown)
VH: EVQLLESGGGLVQPGGSLRLSCAASGFTFTSHAMSWVRQAPGKGLEWVSGISGSGANTYYADSVKGRFTISRDNSKNTLYLQMNSLRAEDTAVYYCARDGIVVVPAANHSYYYYYGMDVWGQGTLVTVSS
VL: DIQMTQSPSSLSASVGDRVTITCRASQSISVHLNWYQQKPGKAPKLLIYIASNLQSGVPSRFSGSGSGTDFTLTISSLQPEDFATYYCQQTYTTPYTFGGGTKVEIK
notes: IgG2
Regarding B14, the “100 nM FACS (MFI Ratio)” value in assay [1] worked out at 8.71.

B15: IL1RL2-296 (antibody, V domains shown)
VH: EVQLLESGGGLVQPGGSLRLSCAASGFIFSNFAMSWVRQAPGKGLEWVSGISGSGSSTNYADSVKGRFTISRDNSKNTLYLQMNSLRAEDTAVYYCARGFWSGYYGMDVWGQGTLVTVSS
VL: DIQMTQSPSSLSASVGDRVTITCRASRSISTYLNWYQQKPGKAPKLLIYAASSSQSGVPSRFSGSGSGTDFTLTISSLQPEDFATYYCQQTYATPWTFGGGTKVEIK
notes: IgG2
As for B15, the “100 nM FACS (MFI Ratio)” value in assay [1] is 19.9.

B16: IL1RL2-293 (antibody, V domains shown)
VH: EVQLLESGGGLVQPGGSLRLSCAASGFTISNYAMSWVRQAPGKGLEWVSGISGSGSSTFYADSVKGRFTISRDNSKNTLYLQMNSLRAEDTAVYYCAKPDSGQWWGVDQWGQGTLVTVSS
VL: DIQMTQSPSSLSASVGDRVTITCRASQSIGNYVNWYQQKPGKAPKLLIYAASNLEDGVPSRFSGSGSGTDFTLTISSLQPEDFATYYCQQSYNTPLTFGGGTKVEIK
notes: IgG2
With B16, the “100 nM FACS (MFI Ratio)” value in assay [1] was 10.2.

B17: CD40L-211 (antibody, V domains shown)
VH: EVQLLESGGGLVQPGGSLRLSCAASGGYNFRDYMHWVRQAPGKGLEWVAEIRNKANNHATKYADSVKGRFTISRDNSKNTLYLQMNSLRAEDTAVYYCAKNLGQGFDYWGQGTLVTVSS
VL: DIQMTQSPSSLSASVGDRVTITCRASQTIGDYLNWYQQKPGKAPKLLIYETSKLASGVPSRFSGSGSGTDFTLTISSLQPEDFATYYCQQSYSTPTFGQGTKVEIK
Turning to B17, in the assay with CD40L, the “100 nM FACS (MFI Ratio)” value came out at 12.1 MFI ratio.

B18: CD40L-210 (antibody, V domains shown)
VH: EVQLLESGGGLVQPGGSLRLSCAASGGYNFRDYMHWVRQAPGKGLEWVATISGGGINTYYPDSVKGRFTISRDNSKNTLYLQMNSLRAEDTAVYYCAKDLGQGFDYWGQGTLVTVSS
VL: DIQMTQSPSSLSASVGDRVTITCSGDKLGDKYTSWYQQKPGKVPKLLIYQNDKRPSGVPSRFSGSGSGTDFTLTISSLQPEDFATYYCQQNNNWPTTFGQGTKVEIK
As for B18, the “100 nM FACS (MFI Ratio)” value with CD40L stood at 2.2 MFI ratio.
